The supplement of paper PMC10065799, “High-throughput profiling of sequence recognition by tyrosine kinases and SH2 domains using bacterial peptide display” (eLife, 2023)

Molecular target: Fyn (UniProt P06241)
Test: phosphorylation enrichment, bacterial display (enrichment ratio); higher = better substrate or ligand; peptides without Tyr show the background
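Note: 11-residue human phosphosite peptides and single-mutation variants displayed on the E. coli surface, counted by deep sequencing, each peptide's frequency after selection divided by its frequency in the unselected input library; frequency after pTyr selection over input frequency; kinase dosed for 20-30% of maximal phosphorylation in three min.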

Chain of Fyn (P06241 whole entry, looked up): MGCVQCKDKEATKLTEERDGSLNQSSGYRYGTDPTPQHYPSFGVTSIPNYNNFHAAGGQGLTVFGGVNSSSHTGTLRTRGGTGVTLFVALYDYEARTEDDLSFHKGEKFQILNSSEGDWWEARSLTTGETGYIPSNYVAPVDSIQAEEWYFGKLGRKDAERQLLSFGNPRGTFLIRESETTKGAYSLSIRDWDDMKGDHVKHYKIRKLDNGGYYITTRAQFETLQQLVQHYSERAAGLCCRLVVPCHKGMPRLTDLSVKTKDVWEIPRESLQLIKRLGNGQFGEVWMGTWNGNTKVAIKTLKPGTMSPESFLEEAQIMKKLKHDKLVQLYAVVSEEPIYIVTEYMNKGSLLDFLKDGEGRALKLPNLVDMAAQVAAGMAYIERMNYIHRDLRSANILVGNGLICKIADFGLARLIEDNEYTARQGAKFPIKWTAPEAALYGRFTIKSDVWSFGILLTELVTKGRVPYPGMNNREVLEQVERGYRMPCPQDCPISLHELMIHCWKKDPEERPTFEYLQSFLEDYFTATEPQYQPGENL

Row | Sequence | phosphorylation enrichment
1 | AKKKMYSLKTK [AGXT_Y231_R233L] | 0.365
2 | ERFSYYGMKAV [SLC15A2_Y61] | 0.8
3 | QDEHGYISWCF [HSPB1_Y133_R136W] | 0.559
4 | RLGLQYSQGLV [EIF2B4_Y214] | 0.732
5 | CTTIHYMFMCN [TP53_Y234_N235M_YF] | 0.445
6 | MFFSTYDRDND [FGB_Y408] | 0.426
7 | QEALEYFMKQM [PIK3CA_Y1038] | 0.696
8 | KGSEGYLAATY [NF1_Y2503] | 0.46
9 | KGIDRYNPENL [EIF3K_Y21] | 0.42
10 | VDASFCGGRGV [ANTXR2_Y381_Y381C_YF] | 0.405
11 | ESKAGYRVPRS [CLDN7_Y195] | 0.369
12 | EAGKVYLKAAM [CBFB_Y96_P100A] | 0.408
13 | VHNLNYFKKTT [FGFR3_Y647_D646N_YF] | 0.302
14 | TACNPYKPPGP | 0.469
15 | NNDLCYWVLEL [IARS1_Y434_P437L] | 5.45
16 | KVGNGYISAAE [CALM2_Y100_D96V] | 0.337
17 | YETSHYLASPD [CTNND2_Y1217_P1218L] | 0.523

Row | Sequence | phosphorylation enrichment
18 | CTTIQYNFMCN [TP53_Y234_H233Q_YF] | 0.494
19 | FQNSLYAPDYS [FAM92A_Y226_R222Q] | 1.07
20 | ELTAKYLNYYQ [P3H4_Y181] | 0.407
21 | RPIEVYLCPEE [E2F3_Y349_G344R] | 1.06
22 | GEDDVYDSVPG [FGR_opt_2018] | 1.59
23 | MYQVQYNSSVD [LRFN1_Y458] | 0.559
24 | TFEYRYLEDQD [CNOT3_Y746_R750Q] | 0.438
25 | FSLIHYAGIVD [MYH7_Y582] | 0.408
26 | QRIHDYFEHRF [HCN4_Y554_YF] | 0.479
27 | FKEQGYHRLPP [RIN1_Y681_YF] | 0.457
28 | RSRQIYDAFIM [GRK3_Y109_YF] | 8.83
29 | LSSEMCVKSYT [F5_Y2149_Y2149C] | 1.2
30 | KIMVIYDGACQ [VWDE_Y1035_T1032M] | 0.885
31 | FRRITYFNWRH [PDE6B_Y556_H557Y_YF] | 0.607
32 | WEPFGFAVTRC [PTPRT_Y412_Y412F] | 0.409
33 | NAGAFYVLSTL [FLVCR2_Y325_A326V] | 0.464

Molecular target: Fes (UniProt P07332)
Sequence (P07332 whole entry, looked up): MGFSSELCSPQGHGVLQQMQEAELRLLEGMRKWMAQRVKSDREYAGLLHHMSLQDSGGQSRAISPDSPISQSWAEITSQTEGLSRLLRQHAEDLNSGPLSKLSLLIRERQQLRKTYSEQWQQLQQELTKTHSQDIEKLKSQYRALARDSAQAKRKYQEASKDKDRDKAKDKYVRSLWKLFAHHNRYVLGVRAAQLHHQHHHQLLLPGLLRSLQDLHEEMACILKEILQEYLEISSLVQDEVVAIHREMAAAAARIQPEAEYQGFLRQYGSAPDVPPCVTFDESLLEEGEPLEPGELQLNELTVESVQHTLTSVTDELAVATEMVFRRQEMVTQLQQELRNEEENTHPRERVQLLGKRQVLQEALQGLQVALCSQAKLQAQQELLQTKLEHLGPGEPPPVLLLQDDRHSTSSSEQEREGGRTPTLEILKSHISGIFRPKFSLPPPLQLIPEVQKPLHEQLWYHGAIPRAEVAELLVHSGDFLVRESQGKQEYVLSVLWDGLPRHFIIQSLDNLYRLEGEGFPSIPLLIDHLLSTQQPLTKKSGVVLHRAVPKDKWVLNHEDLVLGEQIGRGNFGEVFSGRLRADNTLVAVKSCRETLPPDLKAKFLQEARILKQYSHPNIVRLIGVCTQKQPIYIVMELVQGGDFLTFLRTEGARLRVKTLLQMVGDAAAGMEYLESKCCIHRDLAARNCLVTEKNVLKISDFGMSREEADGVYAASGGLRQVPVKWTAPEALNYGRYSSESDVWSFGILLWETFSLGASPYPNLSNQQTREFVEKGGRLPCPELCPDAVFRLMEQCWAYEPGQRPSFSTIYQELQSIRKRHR
Test: as above

Row | Sequence | phosphorylation enrichment
34 | AKKKMYSLKTK [AGXT_Y231_R233L] | 0.791
35 | ERFSYYGMKAV [SLC15A2_Y61] | 0.767
36 | QDEHGYISWCF [HSPB1_Y133_R136W] | 2.34
37 | RLGLQYSQGLV [EIF2B4_Y214] | 1.31
38 | CTTIHYMFMCN [TP53_Y234_N235M_YF] | 1.22
39 | MFFSTYDRDND [FGB_Y408] | 1.05
40 | QEALEYFMKQM [PIK3CA_Y1038] | 1.22
41 | KGSEGYLAATY [NF1_Y2503] | 0.723
42 | KGIDRYNPENL [EIF3K_Y21] | 0.736
43 | VDASFCGGRGV [ANTXR2_Y381_Y381C_YF] | 1.11
44 | ESKAGYRVPRS [CLDN7_Y195] | 0.583
45 | EAGKVYLKAAM [CBFB_Y96_P100A] | 1.26
46 | VHNLNYFKKTT [FGFR3_Y647_D646N_YF] | 0.607
47 | TACNPYKPPGP | 0.717
48 | NNDLCYWVLEL [IARS1_Y434_P437L] | 1.88
49 | KVGNGYISAAE [CALM2_Y100_D96V] | 0.65
50 | YETSHYLASPD [CTNND2_Y1217_P1218L] | 0.961

Row | Sequence | phosphorylation enrichment
51 | CTTIQYNFMCN [TP53_Y234_H233Q_YF] | 1.01
52 | FQNSLYAPDYS [FAM92A_Y226_R222Q] | 1.07
53 | ELTAKYLNYYQ [P3H4_Y181] | 0.802
54 | RPIEVYLCPEE [E2F3_Y349_G344R] | 3.24
55 | GEDDVYDSVPG [FGR_opt_2018] | 1.2
56 | MYQVQYNSSVD [LRFN1_Y458] | 0.963
57 | TFEYRYLEDQD [CNOT3_Y746_R750Q] | 1.15
58 | FSLIHYAGIVD [MYH7_Y582] | 0.963
59 | QRIHDYFEHRF [HCN4_Y554_YF] | 0.656
60 | FKEQGYHRLPP [RIN1_Y681_YF] | 0.679
61 | RSRQIYDAFIM [GRK3_Y109_YF] | 0.48
62 | LSSEMCVKSYT [F5_Y2149_Y2149C] | 1.76
63 | KIMVIYDGACQ [VWDE_Y1035_T1032M] | 1.69
64 | FRRITYFNWRH [PDE6B_Y556_H557Y_YF] | 0.8
65 | WEPFGFAVTRC [PTPRT_Y412_Y412F] | 1.48
66 | NAGAFYVLSTL [FLVCR2_Y325_A326V] | 1.17

Tested on: c-Src
Test: as above

Row | Sequence | phosphorylation enrichment
67 | AKKKMYSLKTK [AGXT_Y231_R233L] | 0.434
68 | ERFSYYGMKAV [SLC15A2_Y61] | 1.4
69 | QDEHGYISWCF [HSPB1_Y133_R136W] | 0.865
70 | RLGLQYSQGLV [EIF2B4_Y214] | 0.683
71 | CTTIHYMFMCN [TP53_Y234_N235M_YF] | 0.38
72 | MFFSTYDRDND [FGB_Y408] | 0.589
73 | QEALEYFMKQM [PIK3CA_Y1038] | 0.675
74 | KGSEGYLAATY [NF1_Y2503] | 0.484
75 | KGIDRYNPENL [EIF3K_Y21] | 0.358
76 | VDASFCGGRGV [ANTXR2_Y381_Y381C_YF] | 0.413
77 | ESKAGYRVPRS [CLDN7_Y195] | 0.43
78 | EAGKVYLKAAM [CBFB_Y96_P100A] | 0.449
79 | VHNLNYFKKTT [FGFR3_Y647_D646N_YF] | 0.425
80 | TACNPYKPPGP | 0.46
81 | NNDLCYWVLEL [IARS1_Y434_P437L] | 5.34
82 | KVGNGYISAAE [CALM2_Y100_D96V] | 0.391
83 | YETSHYLASPD [CTNND2_Y1217_P1218L] | 0.529

Row | Sequence | phosphorylation enrichment
84 | CTTIQYNFMCN [TP53_Y234_H233Q_YF] | 0.5
85 | FQNSLYAPDYS [FAM92A_Y226_R222Q] | 1.42
86 | ELTAKYLNYYQ [P3H4_Y181] | 0.492
87 | RPIEVYLCPEE [E2F3_Y349_G344R] | 2.55
88 | GEDDVYDSVPG [FGR_opt_2018] | 0.933
89 | MYQVQYNSSVD [LRFN1_Y458] | 0.417
90 | TFEYRYLEDQD [CNOT3_Y746_R750Q] | 0.54
91 | FSLIHYAGIVD [MYH7_Y582] | 0.343
92 | QRIHDYFEHRF [HCN4_Y554_YF] | 0.496
93 | FKEQGYHRLPP [RIN1_Y681_YF] | 0.37
94 | RSRQIYDAFIM [GRK3_Y109_YF] | 6.12
95 | LSSEMCVKSYT [F5_Y2149_Y2149C] | 1.16
96 | KIMVIYDGACQ [VWDE_Y1035_T1032M] | 0.796
97 | FRRITYFNWRH [PDE6B_Y556_H557Y_YF] | 0.673
98 | WEPFGFAVTRC [PTPRT_Y412_Y412F] | 0.409
99 | NAGAFYVLSTL [FLVCR2_Y325_A326V] | 0.523

Tested on: AncSZ
Test: as above

Row | Sequence | phosphorylation enrichment
100 | AKKKMYSLKTK [AGXT_Y231_R233L] | 0.404
101 | ERFSYYGMKAV [SLC15A2_Y61] | 0.993
102 | QDEHGYISWCF [HSPB1_Y133_R136W] | 2.17
103 | RLGLQYSQGLV [EIF2B4_Y214] | 0.876
104 | CTTIHYMFMCN [TP53_Y234_N235M_YF] | 1.05
105 | MFFSTYDRDND [FGB_Y408] | 0.849
106 | QEALEYFMKQM [PIK3CA_Y1038] | 1.36
107 | KGSEGYLAATY [NF1_Y2503] | 0.654
108 | KGIDRYNPENL [EIF3K_Y21] | 0.583
109 | VDASFCGGRGV [ANTXR2_Y381_Y381C_YF] | 0.818
110 | ESKAGYRVPRS [CLDN7_Y195] | 0.543
111 | EAGKVYLKAAM [CBFB_Y96_P100A] | 1.03
112 | VHNLNYFKKTT [FGFR3_Y647_D646N_YF] | 0.402
113 | TACNPYKPPGP | 0.605
114 | NNDLCYWVLEL [IARS1_Y434_P437L] | 2.47
115 | KVGNGYISAAE [CALM2_Y100_D96V] | 0.619
116 | YETSHYLASPD [CTNND2_Y1217_P1218L] | 1.09

Row | Sequence | phosphorylation enrichment
117 | CTTIQYNFMCN [TP53_Y234_H233Q_YF] | 0.969
118 | FQNSLYAPDYS [FAM92A_Y226_R222Q] | 1.1
119 | ELTAKYLNYYQ [P3H4_Y181] | 0.781
120 | RPIEVYLCPEE [E2F3_Y349_G344R] | 3.41
121 | GEDDVYDSVPG [FGR_opt_2018] | 1.39
122 | MYQVQYNSSVD [LRFN1_Y458] | 1.05
123 | TFEYRYLEDQD [CNOT3_Y746_R750Q] | 1.22
124 | FSLIHYAGIVD [MYH7_Y582] | 0.997
125 | QRIHDYFEHRF [HCN4_Y554_YF] | 1.06
126 | FKEQGYHRLPP [RIN1_Y681_YF] | 0.441
127 | RSRQIYDAFIM [GRK3_Y109_YF] | 0.51
128 | LSSEMCVKSYT [F5_Y2149_Y2149C] | 1.55
129 | KIMVIYDGACQ [VWDE_Y1035_T1032M] | 1.35
130 | FRRITYFNWRH [PDE6B_Y556_H557Y_YF] | 0.817
131 | WEPFGFAVTRC [PTPRT_Y412_Y412F] | 1.18
132 | NAGAFYVLSTL [FLVCR2_Y325_A326V] | 1.03
